Measured values from US20240132571A1 (MEDPACTO, published 2024).

T1: TM4SF19 in which 3HA was tagged at the N-terminus (human TM4SF19, NP_612470.2 isoform 1) (human, UniProt Q96DZ7 1-209)
T1 construct: also called 3HA-TM4SF19; TM4SF19 tagged with 3HA in N-terminus; not shown: 3HA tag at the N-terminus
T1 sequence: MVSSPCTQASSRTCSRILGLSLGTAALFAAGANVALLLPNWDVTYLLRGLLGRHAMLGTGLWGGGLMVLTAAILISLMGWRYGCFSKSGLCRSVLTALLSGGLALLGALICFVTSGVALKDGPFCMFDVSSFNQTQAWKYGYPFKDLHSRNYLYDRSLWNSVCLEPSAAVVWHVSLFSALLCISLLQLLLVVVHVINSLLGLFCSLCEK

B1: wild-type TM4SF19 in which 3Flag was tagged at the N-terminus (human TM4SF19) (other)
chain: T1 sequence
notes: Overexpressed in 293T cells (for the integrins: 293T or Raw 264.7 cells) and tested by immunoprecipitation; also called 3Flag-hTM4SF19; TM4SF19 wt; not shown: 3Flag tag at the N-terminus
B2: hTm4sf19 94-196 (only aa 94-196 of hTM4SF19 remains, other sequences deleted) (other)
chain: VLTALLSGGLALLGALICFVTSGVALKDGPFCMFDVSSFNQTQAWKYGYPFKDLHSRNYLYDRSLWNSVCLEPSAAVVWHVSLFSALLCISLLQLLLVVVHVI
notes: Expresses transmembrane 3, extracellular region 2 (EC2) and transmembrane 4 of TM4SF19; overexpressed in 293T cells; not shown: tag not expressly stated for this mutant (the other mutants carry 3Flag)
B3: hTM4SF19 94-196Δ (3Flag-tagged deletion mutant lacking transmembrane 3, extracellular region 2 and transmembrane 4) (other)
chain: MVSSPCTQASSRTCSRILGLSLGTAALFAAGANVALLLPNWDVTYLLRGLLGRHAMLGTGLWGGGLMVLTAAILISLMGWRYGCFSKSGLCRSNSLLGLFCSLCEK
notes: the kept ranges are worked out from the printed deletion limits; not shown: 3Flag tag

Assays:
[1] = target: T1, TM4SF19 in which 3HA was tagged at the …; assay: immunoprecipitation, 3HA- and 3Flag-tagged TM4SF19 in 293T cells
Text: To confirm whether TM4SF19 is involved in cell-to-cell interactions, HA- or flag-tagged TM4SF19 was manufactured. TM4SF19 in which 3HA was tagged at the N-terminus, a wild-type in which 3Flag was tagged at the N-terminus, and a TM4SF19-deletion mutant were subjected to transient overexpression in 293T cells to confirm binding through immunoprecipitation.

[2] = target: T1, TM4SF19 in which 3HA was tagged at the …; assay: immunoprecipitation, 293T cells
Text: In the same manner as described above, by the transient overexpression of TM4SF19 in which 3HA was tagged at the N-terminus, a wild-type in which 3Flag was tagged at the N-terminus, and a TM4SF19 deletion mutant in 293T cells, binding was confirmed through immunoprecipitation.

Binder	binding result [1]	binding result [2]
B1	binds	
B2		binds
B3		no binding
